From publication PMC2151085 (PLoS Pathogens, 2007) come the findings set out here.

Usually stoichiometry N stands for a count of units in the complex or per binding partner.

For series [1], the target named is ALV-A Env surface subunit (SU), wild type, on virus particles (avian leukosis virus-A (ALV-A)) (UniProt P0DTM4).
Series [2] deals with the molecule itself. In words: SDS-resistant oligomer by SDS-PAGE and immunoblot. In general terms: In western blotting, separated proteins are transferred to a membrane and probed.

Sequence of ALV-A Env surface subunit (SU), wild type, on virus particles (avian leukosis virus-A (ALV-A)) (P0DTM4 63-401): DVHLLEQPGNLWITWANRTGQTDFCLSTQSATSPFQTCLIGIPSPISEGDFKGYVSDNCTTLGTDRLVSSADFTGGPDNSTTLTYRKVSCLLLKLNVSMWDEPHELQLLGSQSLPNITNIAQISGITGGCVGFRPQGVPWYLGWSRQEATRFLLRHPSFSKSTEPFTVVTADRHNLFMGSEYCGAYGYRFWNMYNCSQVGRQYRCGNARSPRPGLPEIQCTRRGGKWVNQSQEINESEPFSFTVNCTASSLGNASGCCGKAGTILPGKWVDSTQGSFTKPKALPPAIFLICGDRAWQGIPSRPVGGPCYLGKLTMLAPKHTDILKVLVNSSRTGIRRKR

As to “sTva, a functional isoform of the ALV-A receptor lacking the transmembrane domain”, in series [1], the infection of 293-Tva cells by ALV-A particles exposed to PMB (10 mM) in the presence of sTva (10 uM) is greater than 99%.

B1: ALV-A Env transmembrane subunit (TM), on virus particles (natural protein)
chain: STSHLDDTCSDEVQLWGPTARIFASILAPGVARAQALREIERLACWSVKQANLTTSFLGDLLDDVTSIRHAVLQNRAAIDFLLLAHGHGCEDVAGMCCFNLSDHSESIQKKFQLMKEHVNKIGVDSDPIGSWLRGLFGGIGEWAVHLLKGLLLGLVVILLLVVCLPCLLQIVCGNIRKMINNSISYHTEYKKLQKACGQPESRIV
As to B1, the “stoichiometry N” value in series [2] is 3.
